# Literature values in article PMC4517114.
# Where two headings read alike, the source gives them in different places.
# Experiments:
# [1] = target: MAGI-1 PDZ (Homo sapiens) (UniProt Q96QZ7)
# [2] = target: MAGI-1 PDZ (Homo sapiens) (UniProt Q96QZ7); remark: listed apart in the source
# Sequence of UniProt Q96QZ7 (Q96QZ7 472-554): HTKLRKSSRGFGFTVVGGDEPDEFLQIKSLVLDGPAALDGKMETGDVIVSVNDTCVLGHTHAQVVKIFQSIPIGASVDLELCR
substance,measurement,setting,value
HPV16 E6 (from UniProt P03126),Kd,[1],3 µM
HPV18 E6 (from UniProt P06463),Kd,[2],1.5 µM
